Target: AMC-Ubiquitin, P62979

B1: recombinant USP22 (protein)
chain: MVSRPEPEGEAMDAELAVAPPGCSHLGSFKVDNWKQNLRAIYQCFVWSGTAEARKRKAKSCICHVCGVHLNRLHSCLYCVFFGCFTKKHIHEHAKAKRHNLAIDLMYGGIYCFLCQDYIYDKDMEIIAKEEQRKAWKMQGVGEKFSTWEPTKRELELLKHNPKRRKITSNCTIGLRGLINLGNTCFMNCIVQALTHTPLLRDFFLSDRHRCEMQSPSSCLVCEMSSLFQEFYSGHRSPHIPYKLLHLVWTHARHLAGYEQQDAHEFLIAALDVLHRHCKGDDNGKKANNPNHCNCIIDQIFTGGLQSDVTCQVCHGVSTTIDPFWDISLDLPGSSTPFWPLSPGSEGNVVNGESHVSGTTTLTDCLRRFTRPEHLGSSAKIKCSGCHSYQESTKQLTMKKLPIVACFHLKRFEHSAKLRRKITTYVSFPLELDMTPFMASSKESRMNGQYQQPTDSLNNDNKYSLFAVVNHQGTLESGHYTSFIRQHKDQWFKCDDAIITKASIKDVLDSEGYLLFYHKQFLEYE
Q: Which “fluorescence signal generated by cleavage of the fluorogenic substrate AMC-Ubiquitin (in vitro deubiquitination assay, time course)” value does the source give for B1 here?
A: Its value is “fluorescence resulting from the liberation of AMC increased over time in a USP22-dependent manner”.

Source: patent US20240150810
